T1: human CD22 (human, UniProt P20273 20-687, limits assumed)
T1 construct: also called SIGLEC-2; human CD22 protein
T1 sequence (looked up): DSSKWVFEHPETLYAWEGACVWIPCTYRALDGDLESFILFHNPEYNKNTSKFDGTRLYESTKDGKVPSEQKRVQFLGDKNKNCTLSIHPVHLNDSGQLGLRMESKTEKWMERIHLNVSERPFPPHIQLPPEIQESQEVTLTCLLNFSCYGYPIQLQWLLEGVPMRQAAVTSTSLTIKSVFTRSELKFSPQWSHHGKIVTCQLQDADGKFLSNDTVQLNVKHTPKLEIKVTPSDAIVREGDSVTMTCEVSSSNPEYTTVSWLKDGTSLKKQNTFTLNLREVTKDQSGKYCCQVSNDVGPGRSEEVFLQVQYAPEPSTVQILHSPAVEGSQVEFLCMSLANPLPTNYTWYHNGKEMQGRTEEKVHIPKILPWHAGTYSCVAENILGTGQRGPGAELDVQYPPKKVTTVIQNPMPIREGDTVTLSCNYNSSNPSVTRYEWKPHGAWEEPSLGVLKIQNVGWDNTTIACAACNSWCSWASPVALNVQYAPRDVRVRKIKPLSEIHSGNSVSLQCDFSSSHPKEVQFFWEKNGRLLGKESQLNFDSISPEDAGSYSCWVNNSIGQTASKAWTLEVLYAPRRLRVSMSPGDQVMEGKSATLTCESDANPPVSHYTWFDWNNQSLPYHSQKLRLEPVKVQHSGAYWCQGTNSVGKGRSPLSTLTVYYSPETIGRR


Target: T1, human CD22
Assay: ELISA protein and cell-binding assays

| Binder | binding result |
| --- | --- |
| anti-CD22 heavy chain-only antibody Clone ID 335297 (antibody, V domains shown, Heavy chain-only antibody (UniAb), no light chain) VH: QLQLQESGPGLVKPSETLSLTCTVSGGSISSSSYYWGWIRQPPGKGLEWIGHIYYSGATYYNPSLKNRVTISVDTSRNQFSLNLSSVTAADTAVYYCTREDSSSWRSRGQGTLVTVSS | binds |
| anti-CD22 heavy chain-only antibody Clone ID 335179 (antibody, V domains shown, Heavy chain-only antibody (UniAb), no light chain) VH: QLQLQESGPGLVKPSETLSLTCTVSGGSISSSSYYWGWFRHPPGKGLDWIGSIHYSGSTYYNPSLKSRVTISVDTSRNQFSLNLSSVTAADTAVYYCTRDDSSNWRSRGQGTLVTVSS | binds |
| anti-CD22 heavy chain-only antibody Clone ID 335307 (antibody, V domains shown, Heavy chain-only antibody (UniAb), no light chain) VH: QLQLQESGPGLVKPSETLSLTCTVSGDSISSGDYYWGWIRQPPGKGLEWIGSIYYSGSTYYNPSLKSRVTISVDTSKNQFSLKLSSVTAADTAVYYCTREDSSSWRSRGQGTLVTVSS | binds |
| anti-CD22 heavy chain-only antibody Clone ID 335323 (antibody, V domains shown, Heavy chain-only antibody (UniAb), no light chain) VH: QLQLQESGPGLVKPSETLSLTCTVSGDSISSGGYYWGWIRQPPGKGLEWIGSIYYSGSTYYNPSLKNRVTISVDTSKNQFSLKLSSVTAADTAVYYCTREDSSSWRSRGQGTLVTVSS | binds |
| anti-CD22 heavy chain-only antibody Clone ID 335316 (antibody, V domains shown, Heavy chain-only antibody (UniAb), no light chain) VH: QLQLQESGPGLVKPSETLSLTCTVSGGSISSSSYYWGWIRQPPGKGLEWIGHIYYSGATYYNPSLKNRVTISVDTSKNQFSLKLSSVTAADTAVYYCTREDSSSWRSRGQGTLVTVSS | binds |
| anti-CD22 heavy chain-only antibody Clone ID 335333 (antibody, V domains shown, Heavy chain-only antibody (UniAb), no light chain) VH: QLQLQESGPGLVKPSETLSLTCTVSGGSISSSSYYWGWIRQPPGKGLEWIGSIYYSGSTYYNPSLKSRVTISVDTSKNQFSLKLSSVTAADTAVYYCAREDSSSWRSRGQGTLVTVSS | binds |
| anti-CD22 heavy chain-only antibody Clone ID 335301 (antibody, V domains shown, Heavy chain-only antibody (UniAb), no light chain) VH: QLQLQESGPGLVKPSETLSLTCTVSGDSISSGDYYWGWIRQPPGKGLEWIGNIYYSGATYYNPSLKNRVTISVDTSKNQFSLKLSSVTAADTAVYYCTREDSSSWRSRGQGTLVTVSS | binds |
| anti-CD22 heavy chain-only antibody Clone ID 335311 (antibody, V domains shown, Heavy chain-only antibody (UniAb), no light chain) VH: QLQLQESGPGLVKPSETLSLTCAVYGGSFSGYYWGWIRQPPGKGLEWIGHIYYSGATYYNPSLKNRVTISVDTSRNQFSLNLSSVTAADTAVYYCTREDSSSWRSRGQGTLVTVSS | binds |

From patent US20210047402A1 (TENEOBIO, published 2021)
